Common to all, as to test: alanine scan, flow cytometry, HEK293-T;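 note: antibody binding to each alanine-substituted CD33 mutant expressed transiently in HEK293-T, read as fluorescence minus background, mean of duplicates, relative to wild-type CD33 set as 100%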
The target in test [1] is human CD33 I281A (human, UniProt P20138 18-364).
In test [2] the target is human CD33 G245A (human, UniProt P20138 18-364).
Test [3] addresses human CD33 R286A (human, UniProt P20138 18-364).
Test [4] concerns the target human CD33 S314A (human, UniProt P20138 18-364).
Test [5] has as its target human CD33 H259A (human, UniProt P20138 18-364).
Test [6] has as its target human CD33 T284A (human, UniProt P20138 18-364).
Test [7] has as its target human CD33 G247A (human, UniProt P20138 18-364).
Test [8] deals with human CD33 S248A (human, UniProt P20138 18-364).
Sequence of human CD33 S248A (P20138 18-364 S248A limits assumed): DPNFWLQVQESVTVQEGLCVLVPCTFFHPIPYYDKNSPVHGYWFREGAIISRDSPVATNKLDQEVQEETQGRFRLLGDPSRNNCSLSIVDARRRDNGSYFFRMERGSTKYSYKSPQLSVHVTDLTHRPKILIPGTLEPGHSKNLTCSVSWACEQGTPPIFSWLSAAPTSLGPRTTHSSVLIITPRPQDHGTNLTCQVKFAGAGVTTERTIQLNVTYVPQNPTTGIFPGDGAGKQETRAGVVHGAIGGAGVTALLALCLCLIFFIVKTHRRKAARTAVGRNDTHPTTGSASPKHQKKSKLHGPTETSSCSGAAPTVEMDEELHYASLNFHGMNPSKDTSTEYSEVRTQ
The target of test [9] is human CD33 R254A (human, UniProt P20138 18-364).
Test [10] addresses human CD33 L277A (human, UniProt P20138 18-364).
Test [11] addresses human CD33 K313A (human, UniProt P20138 18-364).
The target of test [12] is human CD33 T268A (human, UniProt P20138 18-364).
Sequence of human CD33 T268A (P20138 18-364 T268A limits assumed): as the sequence (P20138 18-364 S248A limits assumed) above, with A231S, T251A counted along it
For test [13], the target named is human CD33 I278A (human, UniProt P20138 18-364).
Sequence of human CD33 I278A (P20138 18-364 I278A limits assumed): as the sequence (P20138 18-364 S248A limits assumed) above, with A231S, I261A counted along it
Test [14] has as its target human CD33 V267A (human, UniProt P20138 18-364).
Test [15] has as its target human CD33 L275A (human, UniProt P20138 18-364).
Test [16] has as its target human CD33 K283A (human, UniProt P20138 18-364).
Test [17] deals with human CD33 G295A (human, UniProt P20138 18-364).
Sequence of human CD33 G295A (P20138 18-364 G295A limits assumed): as the sequence (P20138 18-364 S248A limits assumed) above, with A231S, G278A counted along it
Test [18] deals with human CD33 K312A (human, UniProt P20138 18-364).
Test [19] addresses human CD33 A272S (human, UniProt P20138 18-364).
Test [20] deals with human CD33 N297A (human, UniProt P20138 18-364).
Sequence of human CD33 N297A (P20138 18-364 N297A limits assumed): as the sequence (P20138 18-364 S248A limits assumed) above, with A231S, N280A counted along it
The target of test [21] is human CD33 Y233A (human, UniProt P20138 18-364).
The target in test [22] is human CD33 P174A (human, UniProt P20138 18-364).
The target in test [23] is human CD33 S195A (human, UniProt P20138 18-364).
Test [24] concerns the target human CD33 G207A (human, UniProt P20138 18-364).
Test [25] addresses human CD33 L197A (human, UniProt P20138 18-364).
Test [26] concerns the target human CD33 T173A (human, UniProt P20138 18-364).
The target in test [27] is human CD33 A183S (human, UniProt P20138 18-364).
Test [28] addresses human CD33 T232A (human, UniProt P20138 18-364).
In test [29] the target is human CD33 N230A (human, UniProt P20138 18-364).
For test [30], the target named is human CD33 A219S (human, UniProt P20138 18-364).
Test [31] addresses human CD33 P201A (human, UniProt P20138 18-364).
Test [32] has as its target human CD33 V214A (human, UniProt P20138 18-364).
In test [33] the target is human CD33 A168S (human, UniProt P20138 18-364).
For test [34], the target named is human CD33 T240A (human, UniProt P20138 18-364).
For test [35], the target named is human CD33 F177A (human, UniProt P20138 18-364).

Sequence of human CD33 H259A (P20138 18-364 H259A limits assumed): as the sequence (P20138 18-364 S248A limits assumed) above, with A231S, H242A counted along it
Sequence of human CD33 K283A (P20138 18-364 K283A limits assumed): as the sequence (P20138 18-364 S248A limits assumed) above, with A231S, K266A counted along it
Sequence of human CD33 K313A (P20138 18-364 K313A limits assumed): as the sequence (P20138 18-364 S248A limits assumed) above, with A231S, K296A counted along it
Sequence of human CD33 S314A (P20138 18-364 S314A limits assumed): as the sequence (P20138 18-364 S248A limits assumed) above, with A231S, S297A counted along it
Sequence of human CD33 L277A (P20138 18-364 L277A limits assumed): as the sequence (P20138 18-364 S248A limits assumed) above, with A231S, L260A counted along it
Sequence of human CD33 G247A (P20138 18-364 G247A limits assumed): as the sequence (P20138 18-364 S248A limits assumed) above, with G230A, A231S counted along it
Sequence of human CD33 G245A (P20138 18-364 G245A limits assumed): as the sequence (P20138 18-364 S248A limits assumed) above, with G228A, A231S counted along it
Sequence of human CD33 A272S (P20138 18-364 A272S limits assumed): as the sequence (P20138 18-364 S248A limits assumed) above, with A231S, A255S counted along it
Sequence of human CD33 R286A (P20138 18-364 R286A limits assumed): as the sequence (P20138 18-364 S248A limits assumed) above, with A231S, R269A counted along it

B1: Refmab #3 (antibody, V domains shown)
VH: QVQLVQSGAEVKKPGSSVKVSCKASGYTFTDYNMHWVRQAPGQGLEWIGYIYPYNGGTGYNQKFKSKATITADESTNTAYMELSSLRSEDTAVYYCARGRPAMDYWGQGTLVTVSS
VL: DIQMTQSPSSLSASVGDRVTITCRASESVDNYGISFMNWFQQKPGKAPKLLIYAASNQGSGVPSRFSGSGSGTDFTLTISSLQPDDFATYYCQQSKEVPWTFGQGTKVEIK
notes: The alanine scan used IgG or Fab
B1: the “Mean % WT Binding” value in test [1] is 91 % WT binding; in [2], 127 % WT binding; in test [3] it was 92.4 % WT binding; in test [4], 139 % WT binding; in test [5] it was 104 % WT binding; in test [6], 83.2 % WT binding. Besides, the “Mean % WT Binding” value in test [7] was found to be 106 % WT binding; in test [8] it was 133 % WT binding; in test [9] it was 88.4 % WT binding; in [10], 81.9 % WT binding; in test [11], 137 % WT binding; in [12], 91.5 % WT binding. For the same molecule, the “Mean % WT Binding” value in test [13] was found to be 100 % WT binding; in test [14] it was 106 % WT binding; in [15], 123 % WT binding; in test [16], 90.9 % WT binding; in [17] it was 95.8 % WT binding; in test [18] it was 99.6 % WT binding. Further, the “Mean % WT Binding” value in test [19] was determined as 105 % WT binding; in test [20], 133 % WT binding.

B2: Refmab #4 (antibody, V domains shown)
VH: QVQLVQSGAEVKKPGESVKVSCKASGYTFTNYGMNWVKQAPGQGLEWMGWINTYTGEPTYADKFQGRVTMTTDTSTSTAYMEIRNLGGDDTAVYYCARWSWSDGYYVYFDYWGQGTSVTVSS
VL: DIVMTQSPDSLTVSLGERTTINCKSSQSVLDSSTNKNSLAWYQQKPGQPPKLLLSWASTRESGIPDRFSGSGSGTDFTLTIDSPQPEDSATYYCQQSAHFPITFGQGTRLEIK
notes: In the alanine scan antibodies were used as IgG or Fab
As for B2, the “Mean % WT Binding” value is 98.5% in test [21]; 118% in [22]; 112% in test [23]; 87.1% in test [24]; 95.3% in test [25]; 119% in test [26]. Besides, the “Mean % WT Binding” value was found to be 103% in test [27]; 57.4% in test [28]; 63.5% in test [29]; 112% in test [30]; 103% in test [31]; 101% in test [32]. For the same molecule, the “Mean % WT Binding” value was determined as 99.9% in test [33], 76.8% in test [34] and 25.4% in test [35].

B3: Refmab #4 (antibody, V domains shown)
VH: QVQLVQSGAEVKKPGESVKVSCKASGYTFTNYGMNWVKQAPGQGLEWMGWINTYTGEPTYADKFQGRVTMTTDTSTSTAYMEIRNLGGDDTAVYYCARWSWSDGYYVYFDYWGQGTSVTVSS
VL: DIVMTQSPDSLTVSLGERTTINCKSSQSVLDSSTNKNSLAWYQQKPGQPPKLLLSWASTRESGIPDRFSGSGSGTDFTLTIDSPQPEDSATYYCQQSAHFPITFGQGTRLEIK
notes: as for B1
B3: the “Mean % WT Binding” value in [1] came out at 122 % WT binding; in test [2] it was 94.9 % WT binding; in test [3] it was 101 % WT binding; in test [4], 95.5 % WT binding; in [5], 114 % WT binding; in [6] it was 111 % WT binding. Besides, the “Mean % WT Binding” value in test [7] was 113 % WT binding; in [8], 99.7 % WT binding; in test [9], 101 % WT binding; in test [10], 92.2 % WT binding; in [11], 87.7 % WT binding; in test [12] it was 100 % WT binding. Also, the “Mean % WT Binding” value in [13] came to 116 % WT binding; in [14] it was 116 % WT binding; in test [15], 99.3 % WT binding; in [16], 84 % WT binding; in test [17], 107 % WT binding; in test [18], 98.9 % WT binding. In addition, the “Mean % WT Binding” value is 107 % WT binding in [19] and 88.9 % WT binding in test [20].

B4: Refmab #1 (antibody, V domains shown)
VH: EVQLVQSGAEVKKPGSSVKVSCKASGYTITDSNIHWVRQAPGQSLEWIGYIYPYNGGTDYNQKFKNRATLTVDNPTNTAYMELSSLRSEDTAFYYCVNGNPWLAYWGQGTLVTVSS
VL: DIQLTQSPSTLSASVGDRVTITCRASESLDNYGIRFLTWFQQKPGKAPKLLMYAASNQGSGVPSRFSGSGSGTEFTLTISSLQPDDFATYYCQQTKEVPWSFGQGTKVEVK
notes: The alanine scan used IgG or Fab; also called hP67.6
For B4, the “Mean % WT Binding” value in [1] is 85 % WT binding; in test [2], 84.3 % WT binding; in test [3], 96.3 % WT binding; in [4], 96.2 % WT binding; in test [5], 97.4 % WT binding; in test [6] it was 92.8 % WT binding. The “Mean % WT Binding” value in [7] came to 98.5 % WT binding; in test [8], 88.4 % WT binding; in test [9], 101 % WT binding; in test [10], 85.5 % WT binding; in [11], 84.1 % WT binding; in test [12] it was 102 % WT binding. The “Mean % WT Binding” value in [13] was determined as 99.1 % WT binding; in [14] it was 88.3 % WT binding; in test [15], 88.7 % WT binding; in test [16], 92.7 % WT binding; in test [17], 92.7 % WT binding; in test [18], 83.8 % WT binding. The results for the “Mean % WT Binding” value in test [19] and in test [20] were 87.6 % WT binding and 94.9 % WT binding, respectively.

B5: Refmab #2 (antibody, V domains shown)
VH: QVQLVQSGAEVKKPGSSVKVSCKASGGTFSDYAISWVRQAPGQGLEWMGRIIPILGVADYAQKFQGRVTITADKSTRTAYMELSSLRSEDTAVYYCARNWADAFDIWGQGTMVTVSS
VL: DIQLTQSPSSLSASVGDRVTITCRASQGISSVLAWYQQKPGKAPKLLIYDASSLESGVPSRFSGSGSGTDFTLTISSLQPEDFATYYCQQFDSSITFGQGTKLEIK
notes: as for B1
Regarding B5, the “Mean % WT Binding” value came out at 114 % WT binding in test [1]; 112 % WT binding in [2]; 117 % WT binding in test [3]; 95.5 % WT binding in test [4]; 109 % WT binding in test [5]; 119 % WT binding in test [6]. The “Mean % WT Binding” value in test [7] worked out at 110 % WT binding; in test [8], 93.6 % WT binding; in test [9], 118 % WT binding; in test [10], 117 % WT binding; in test [11], 108 % WT binding; in test [12], 107 % WT binding. In addition, the “Mean % WT Binding” value in test [13] turned out to be 106 % WT binding; in test [14] it was 114 % WT binding; in test [15], 115 % WT binding; in test [16], 102 % WT binding; in [17], 110 % WT binding; in test [18], 110 % WT binding. Also, the “Mean % WT Binding” value in test [19] amounted to 110 % WT binding; in [20], 108 % WT binding.

Values taken from patent publication US20260242735A1 (UNIVERSIT T BASEL, published 2026).
